Source: article PMC3797041 (PLoS ONE, 2013)

B1: hybrid construct D1A3 (VHH)
VHH: EVQLQASGGGLVQPGGSLRLACQYSGRTFSRAVMGWFRQSPGKEREFVAAISAAPGTAYYAFYADSVRGRFTTSSDNFKKTAYLQMNGLKPEDTALYYCTEDLKMQVAAYMNQRSVDYWSQGTQVTVSS
B2: hybrid DDA (VHH)
VHH: EVQLQASGGGLVQPGGSLRLACQYSGREGTTTVGWFRQSPGKEREFVAAIRWTDSRTPHTDSRFTTSSDNFKKTAYLQMNGLKPEDTALYYCTEDLKMQVAAYMNQRSVDYWSQGTQVTVSS
B3: hybrid DAD (VHH)
VHH: EVQLQASGGGLVQPGGSLRLACQYSGREGTTTVGWFRQSPGKEREFVAAISAAPGTAYYAFYADSVRGRFTTSSDNFKKTAYLQMNGLKPEDTALYYCTEDTWNSVVTGTAADWSQGTQVTVSS
B4: hybrid ADD (VHH)
VHH: EVQLQASGGGLVQPGGSLRLACQYSGRTFSRAVMGWFRQSPGKEREFVAAIRWTDSRTPHTDSRFTTSSDNFKKTAYLQMNGLKPEDTALYYCTEDTWNSVVTGTAADWSQGTQVTVSS
B5: hybrid antibody A3C8 (VHH)
VHH: EVQLVESGGGLVQAGDSLRLSCTASGRTLGDYGVAWFRQAPGKEREFVSVISRSTIITDYADSVRGRFSISADSAKNTVYLQMNSLKPEDTAVYYCAVIANPVYATSRNSDDYGHWGQGTQVTVSS
B6: hybrid AAD (VHH)
VHH: EVQLVESGGGLVQAGDSLRLSCTASGRTFSRAVMGWFRQAPGKEREFVAAISAAPGTAYYAFYADSVRGRFSISADSAKNTVYLQMNSLKPEDTAVYYCAADTWNSVVTGTAADWGQGTQVTVSS
B7: hybrid construct A3D1 (VHH)
VHH: EVQLVESGGGLVQAGDSLRLSCTASGREGTTTVGWFRQAPGKEREFVAAIRWTDSRTPHTDSRFSISADSAKNTVYLQMNSLKPEDTAVYYCAADTWNSVVTGTAADWGQGTQVTVSS
B8: hybrid antibody C8A3 (VHH)
VHH: EVQLQASGGGLVQGGDSLRLSCAASGRTFSRAVMGWFRQAPGKEREFVSAISAAPGTAYYAFYADSVRGRFTISRDNAKNAVYLQMNSLKPEDTAVYYCAVDLKMQVAAYMNQRSVDYWGQGTQVTVSS

Target: T1, Staphylococcal enterotoxin B (Staphylococcus aureus, strain , UniProt P01552)
T1 construct: source: bought: Toxin Technologies
Assay: SPR
Details: both partners purified

T1 sequence (P01552 28-266): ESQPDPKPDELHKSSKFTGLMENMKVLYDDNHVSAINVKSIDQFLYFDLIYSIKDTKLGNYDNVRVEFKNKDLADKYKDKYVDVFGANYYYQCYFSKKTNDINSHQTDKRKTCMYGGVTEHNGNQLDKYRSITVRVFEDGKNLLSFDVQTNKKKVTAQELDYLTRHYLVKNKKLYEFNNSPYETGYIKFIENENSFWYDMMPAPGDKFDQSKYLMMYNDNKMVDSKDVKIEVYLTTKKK

How did the Kd turn out when B1 was run?
The Kd was 0.56 nM.

Does B2 bind?
Result: no binding

With B3 as the binder, how does the Kd read?
Its Kd is 20 nM.

Does B4 bind?
Result: no binding

Does B5 bind?
Result: no binding

Which Kd does the source give for B6 here?
The Kd was 12 nM.

Does B7 bind?
Result: no binding

With B8 as the binder, how does the Kd read?
Its Kd is 2.7 nM.
